Data set [1] addresses T1, human alpha-thrombin (Homo sapiens) (UniProt P00734+P00734). Put plainly: bead-based fluorescence binding. As to conditions: 50 mM Tris, 100 mM NaCl, 1 mM MgCl2, 5 mM KCl, 1 mM CaCl2, 0.01% Tween 20, pH 7.5 (selection buffer), 1 h room temperature ….
Data set [2] deals with T1, human alpha-thrombin (Homo sapiens). Put plainly: fibrin formation inhibition (OD350). As to conditions: 50 mM Tris, 100 mM NaCl, 1 mM MgCl2, 5 mM KCl, 1 mM CaCl2, 0.01% Tween 20, pH 7.5 (selection buffer), 1 h room temperature ….

Two sequences from publication PMC3526301 can be followed below.

As a reminder, the Ki is a dissociation constant, usually derived from enzyme kinetics or from competition with a known ligand.

As for “AGTCCGTGGTAGGGCAGGTTGGGGTGACT [Tasset-29]”, in data set [1], the fold affinity loss vs TBV-08 (fold lower affinity than TBV-08) worked out at 200.
Regarding GGTTGGTGTGGTTGG [Bock-15], the Ki in data set [2] was 2.61 nM. The sequence also returned a fold affinity loss vs TBV-08 (fold lower affinity than TBV-08) in data set [1] of 300.
